The text below walks through data of PMC10240976 (2022).

This assay concerns the target LC3B K65W. In words: ITC. For orientation: In ITC the heat of successive injections is recorded.

Usually Kd stands for a measure of binding affinity in units of concentration. Lower therefore signals higher affinity. LQFEIDDEMEPLYNQAKQMRYGDY [LIR[Sp] peptide]: the affinity, expressed as Kd, was 22.4 µM.
